Measurements as given in a protein production outcome set (Wang et al. 2014).

assay: label from the status in PepcDB records

Row | Sequence | protein production
1 | MREEKIREALNAHWQASAAGDFDAEHDIYDDDAICDYPQSGERILGRMNLQALRSHHPGKPAGFEVRRIQGEGNLWITEYSISYNGRPAYTVSIMEFRNGKVVHETQYFSDPFEAPGWRSQWVQQIG | not failed
2 | MRELTSNEMNNVSGGDLASRLEASIVGSVAGFFAGSIWGGTRGGDGGGILGVGSIGQGVGMIYGGIAGAIGGAIGAFVIDKTLTYTYTTGFMNSLFSGTFAK | failed
3 | MREMQIMSQPEQSRLDLFIDRMVSQRACLEHAIAQTAGLSGPVYELGLGNGRTYHHLRQHVQGREIYVFERAVASHPDSTPPEAQLILGDIRETLPATLERFGATASLVHADLGGHNREKNDRFARLISPLIEPHLAQGGLMVSSDRMYFEGLEELPLPPGAVVGRCFIYRRG | not failed
4 | MRENSTKPPQPHISEPADVAESRFISVAIPTFRRPDTIRRAIDSVLHQDFSNWELIVSDDEGPDGQTWAMLTDYARADPRIRIVENRRGRGQVENTNNVMLACRGSWIKLLHDDDWLAPKALGTFAQVAQQYPSAAFITCATNRVEDDRVKLRSARPGKKHVTVCSSQQTLKDLYLVRTTRSFGIIPSSLLVNSIVVQNGCLMRTYKSITAGVDQLFFIDLARHGDMVMIEDGLIFYDATNHSSVTASTTFDDVDRETIDLKHLTWSLIEDKHELPDPETIAGALQVARLRSRFRHQPWGSTIRHALQIFHPSVTKAVNQDIFARVQAVLRRRLRRTNW | failed
5 | MREPMTWRTSPGQTADASRHPAIPSRSPLASRALSFLGALSLLTFAATPVLAESTPTAAPPQFAVESPKAASSLLLSVAHAGKRLVAVGDRGHILLSDDDGKTWTQAKVPTRQLLTSVFFVNERKGWAVGHDAQILVSDDAGSTWARQFEDLGREAPLLDIWFADEQHGLAVGAYGALLETRDGGQHWEDVSERLDNEDQFHLNAIAAVKDNGLLVVGEAGSLFRSKDWGATWEKLEGPYEGSLFGAIGTADAGGVLVYGLRGHLFRSADFGDSWEEIPLKAASGDLEFGLSDGALLADGRIVVVGHGGSVLESTDGGRSFSVFNRPDRLSLAGVSATGDGHLILVGQGGVHLAAANGAALEQQQ | failed
6 | MRERRYSSTSPERLAAALFDVAAESGLEGASVREVAKRAGVSIGAVQHHFSTKDEMFAFALRTLVDKLLARLSEVERGGDPARALFAAMSQLLPLDEARSREAHVMAAFAVRAATSPSLAEIRRKTLFTIRTGLSAVLIGIGTPEAETRAALLLATVDGLALDAIGSPALYPPEYLEHALDIQIGMILQGADVVPSSSIELAS | not failed
7 | MRETFEIGEIVTGIYKTGKYIGEVTNSRPGSYVVKVLAVLKHPVQGDLHNVKQANVPFFHERRALAFREQTNIPEQMVKKYEGEIPDYTESLKLALETQMNSFSEDDSPFAERSLETLQQLKKDYKL | not failed
8 | MRETLERLLASETFGRSERARKLIRYLVEREQAGEADRLKGFSIAMDVFGKDGDFDPSTDAVVRVQAGRLRELLQQYFANEGIAEPVRIAIPRGGYVPAYELNAIRLPEVAKPAEQAAAAAAPAEHPSAAEDAVAPDASLAPAAAPVPSVARHLRFFWMAIAVVIAMLGVLILRQGSGALLAGGHLPATFESAGLTSSIAPSPVSEALPLVYIAVKASGADAGRIAASLRAGLSGFDTIDFIGRDTVDKTDPVNNPTSFIFDILPGPNTGDITIELQSMASGRVLLSRNLTPADSTPTAIEDRVADMLSSALPASGTIYNYIEQTGTPNGLTECLLLNDKYYLDQNARTHEAAYRCLETLANSGAKSSLVYSELASLQVEAVSDHYVYPPNATIEKAVEFAHRGVQMGPTSPYAHRAYGYVSSRLGNTDEAIRWMRKAYELNPYDLGMAAAYGYGLIFAGRYAEGTPILTHAAETFSGHSTWWDYGLFVGDFMLGDMNKAIAASMALRTTATKSHYLAARLIGAKAAGQDSLVTTLLNELNTKFPKFAADPRSTFVERKYPADLTDRLVQALRAAGLGSAS | failed
9 | MRFAVLGSGSQGNGTLIASGDTFILVDCGFSLRETERRLALLGVSAAQLSAVLVTHEHADHVHGVGLLSRRYNVPVYLSQGTLRGMRKPVEVAGFLACGQSLHIGSLEVTAARVEHDAYEPLQYVVSDGKRRFGMLTDLGSYDALLLERYQGLDALLIEANHCRDLLARGHYPAFLKQRVGGMQGHLNNHQAARLVHELGWNNLQHLVLAHLSSKNNLPHLARQCFVDTLGCDPDWLQVANQEHGLDWREIALEHHHHHH | not failed
10 | MRFCIMKKAVVLLSGGLDSTTCLALAKSQGFACYALSFSYGQRHSAELCAATRIAKHMGAADHKIVTLDIALFGGSALTDASIEVPEFKESPEIPVTYVPARNTIFLAMALGYAESIGARDIFIGASSVDYSHYPDCRPEFIESFQSLANLATKAGIEGDRFTINAPLQYLSKVQTIQLGTELGVDYGLTVSCYQANEAGEACGQCDSCTFRKRGFKSAGVDDPTRYQKCVHI | failed
11 | MRFDGAAGLAQRMPMLGRVVQAAPLALLLGCCLILTLPASGRTLFYILCSLSLLFLPLAMFQRLEAKPKALNLLLSFALLIFIGFRAAWLWYFPAPTDAGLFPVAFAYQLSNKIWLSALPLLLFPLWSPFRERLSPAGATLALVSASALLSMITLKAWYDAHGVRVGLGSLYATGAAYLLSAIHFFALLLFHPFRLKKWQWLGLCLLIALQFMSIVATGTRAALLVYLFVLGCALLWRFGLHQSWRTYAIAALLSVATLWLSWAAVGSRVKQAQADLIAYSQGNADTSLGIRFSLWDAGVHAVREQPWGQSIQARDVLFHQLVKDGALNKAALIMRDVHLHNEWLEILSLQGLPGALSWLIFLLGFGVYGWKRGGFFRRFALFYIGFWLVFGLSDVLLLSPQIAMFGAMFAALGLYLAPIFDARDERRL | failed
12 | MRFKAELMNAPEMRRALYRIAHEIVEANKGTEGLALVGIHTRGIPLAHRIARFIAEFEGKEVPVGVLDITLYRDDLTEIGYRPQVRETRIPFDLTGKAIVLVDDVLYTGRTARAALDALIDLGRPRRIYLAVLVDRGHRELPIRADFVGKNVPTSRSEVVKVKVEEVDGEDRVELWEREGA | not failed
13 | MRFKAIFVRVTKELLRDKRTLALMLVAPVLVLTLMYFIFDTNNDVNLEVGVDESVPNKIVNALPSDKVKIKEYDSPSSIKKTIVNSDLDAYIEKKGDKLDVTYKNENPSNTGTTKQLLGSAIQKNKLQDMAKVINKIPSNIKQGNSAQGEQITLDNHYLYGNSDSTFFDKMFPILIGFFVFFFVFLISGIALLRERTKGTLERLLATSVKRSEIVFGYLAGYGMFAVLQTLIIVFYAIYLLKIDVAGSIWWVLLINILIALSALAMGIFVSTFANSEFQMVQFIPLVVIPQVFFSGIIPLDNVADWVSSIGYIFPLRYAGDALTNIMIKGEGFNNIWFDLSILLVFIIGFTVLNIIGLKRYRKV | not failed
14 | MRFKFLRGKLNHPIKCVCDNLSMDNQIMSTELYSQILEVIALVPFGKVATYGQIARLAGLPKHARLVGYTLKNIDQASDIPWHRIINAQGKVSTYHLNQIGENIQLNKLRDEGIVVLNGKINLKKYQWLVSQS | failed
15 | MRFLLMRSLLVHPCGGSIINVRSTTTSAQYVASRSRDPVFEKLMDKYKNLLKVIAIQDLTLANPTADPPSLSIEFLSRLSQKLHLNRGAASFLRKYPHIFHVLYDPVKAEPFCRLTDVAMEISRQEALAITATLSLVVDRLVRLLSMSISKSIPLRAVFKVWRELGLPDDFEDSVISKNPHLFKLSDGHESNTHILELVQEEEKRLEFEAAVEKWRVVECSKEDCSVDRTEIQFSFKHSYPPGMRLSKTFKAKVKEWQRLPYVGPYEDMVGKKKSRSGVMGIEKRAVAIAHEFLNLTVEKMVEVEKISHFRKCFGIDLNIRDLFLDHPGMFYVSTKGKRHTVFLREAYERGRLIDPNPVYDARRKLLDLVLLGRHAALSESGNTSMSEQE | failed
16 | MRFVLRILKALALLLVLLVITAAGWLFIRPPELLRVGDGYAAKIVCSNVFIAGREAEDVLHDDVQAPGNPLLRLLRVSVDRDNDRVTARFMGLFAPSYALYRGAFGCTSVPDGNFEAAAKAAPFDPPAKMQANDALWPEGEGTGNPADGKIAALLSDAGVAGPAMRAIVVVRNGRIVTEAYGPGFSAKTPLIGWSMTKTVNATILGRLMLGGKISFDDDNLLAQWKNDARAKIKVSDLLGMESGLAFNENYGDVADVTRMLYLDPDMVSLPAGAPMEAAPGQRFRYSSGTAVLLSRIWMDRVGNAQAAFSYPHDALFAPLGMTSAVFELDARGTFAGSSYLYATAHDWARFGQFLLQDGVWNGQRLLPEGFVGAMRTPTAASNGRYSQGQAWLSPGRGSSAGAGLPEDTFWLTGHDGQSVAIVPSANLVVVRLGLTPSRLGYQPQTLLKAILAALPQSGAQQQAGSQRQAQPQP | failed
17 | MRFWGKFFGFVIGFMFGRFFGALLGLWLGHLYDKRPGGGASFSQILGQAKNRQGIFFNTTFAVMGHVAKASGRVTETDIRIATLLMDQMRLTGDARKEAQQAFREGKEPDFDLCSSLQAFRAVTQGRQELVQMFIEIQIQTALSDGELDAAEHAILMTVAQELGYGRQQLDELLKRWQAEFRFHQTSSGNKTSITDAYHLLGITAEATDQEVKRAYRKLMNEHHPDKLVAKGLPPEMMEIANRKAQDIQAAYDRVKSERGMR | failed
18 | MRGADGRVTDADYRELRGATETPREAVVVGLAGEVGLTSAEIPRVRPCDVAPHDHDGVTHYFLAVPGADGGSDRDAYLPPAVERDIRRRADAAGLADDDPLVDVSARRVQTLVNAVAGRTDTAGLDGVAAQDLRSFFARRLLTGAGVDPRVVAAVGGWSRLASLDQYAAVDAVDRDAIARAFDGTTRAPTDRSEQRAHDRVDEAHSAVLAAGDALSDASTRGAVETAVCEALAASDAYEMAWLARPTTRDDVTVAATAGGDRAIRDDASAAPGATLVQAALDDGTGLFTPAASAAPAVAALREHAAAAGVQAMGVVPVAGPEAAHGVLAVGASTARFSQRERTLITDLGRRVGRAVALAEQRHRLLTDTVLEVAFEVRAGSVFARAAVEQGCDLSLEGVVPGDRQTLVFFVRVAGAPADGVRDWLHDHDGVVSVRVVRDQGGEAVLAVGVAPGADLAMAVVSHGGTIRDLSAGPGGERVVAGVAPETDVRALLDALATAFPGVSLAAKRERARGDETGQRDGASLHDALTDKQAAVLRAAFHAGYFEWPRESTAEDLAADMGVTAPTLHNHLRRAQQKLLATVIDSDGGCDPDTPWPDTRQ | failed
19 | MRGDDMHIYELVSRDRTHPVRIYLLHSEYWTEDEFYNLLLEAFQRSSASDWHLQILEVSKYLVTAHGFVEAGGLQEIGFPGELSKTEVRRRINAFLGKDRSD | not failed
20 | MRGNDETVLAQALDWLRQGRRVALLTVLGTYGASPRPPGALAAIRDDGVICGSVSGGCVEDDLRREIAEGGVFGAAPSARVRSFGVSVEERQRYRLPCGNSLRVAVETMPDPAQLEALLAAVRQRRCLWRRVDYRDGAAHLLESGPPAAFAEDEAGFSALHGPLWRLLIIGGAELGRYLAQIALTLDYAVTVCEPREEYAAGWEPDGVALSAQMPDDLVLAFGCDERTAVVAVTHDPKLDDLALMEALRLPCHYVGALGSATTTMKRKARLAEHFGLTPAQLDRLHGPVGLPIGSRTPAEIAVSIAADLIASRSACHREGVHGEEGSCRA | failed
21 | MRHDIRAPETFRRYCLPSRPRGCPLKTYVIGDVHGRADLLKALPSHIEENDPNGCGYRVIFLGDIIDRGPDSMKAMEMVVRELNQNPESRLILGNHEEFMLLFLDRPDKREIVFDHWMRNGGLAAAASYGLNVGGRYGRIEEAHESLLELLHRRQNHIDAMRRAASLINDGANVFVHAGLRPGVPFEQQTTKDLRTIRSGFLDNDFDFGAMVVHGHTVTSSGLPEIRRSRIALDTGAGAGGCLSMMMVDDDGARTFFQSGSAREVVKVELSQRPDEP | failed
